Reference: patent US20170189519A1

Assays:
Settings in all cases: remark: other sources report otherwise
[1] = target: s127H1-t2-cl18long; experiment: SEC-MALS with Fab fragments, protein of fraction 3 (ca. 110 kD alone)
[2] = target: s127H1-t2-cl18long; experiment: SEC-MALS with Fab fragments, protein of fraction 3
[3] = target: 26H1; experiment: ELISA, coated CR6261, P. pastoris culture medium
[4] = target: s127H1-t2-cl18long

B1: Fab fragment of CR6261 (Fab, V domains shown)
VH: EVQLVESGAEVKKPGSSVKVSCKASGGPFRSYAISWVRQAPGQGPEWMGGIIPIFGTTKYAPKFQGRVTITADDFAGTVYMELSSLRSEDTAMYYCAKHMGYQVRETMDVWGKGTTVTVSS
VL: QSVLTQPPSVSAAPGQKVTISCSGSSSNIGNDYVSWYQQLPGTAPKLLIYDNNKRPSGIPDRFSGSKSGTSATLGITGLQTGDEANYYCATWDRRPTAYVVFGGGTKLTVLG
Q: For B1, which size of the complex formed [1] is on record?
A: The size of the complex formed was 215 kD.

Q: What about the Fab fragments bound per trimer (Fab fragments) [2] of the same binder?
A: The Fab fragments bound per trimer (Fab fragments) was 3.

B2: CR6261 (antibody, V domains shown)
VH: B1 VH
VL: B1 VL
Q: For B2, which CR6261 binding signal [3] is on record?
A: Its CR6261 binding signal is 78800.

Q: And the Kd [4]?
A: The Kd was 0.7 nM.
